The text below walks through data of PMC6980713.

The target in the data set is T1, HMCES SRAP domain (SRAPd) (Homo sapiens, UniProt Q96FZ2 1-270).
T1 sequence: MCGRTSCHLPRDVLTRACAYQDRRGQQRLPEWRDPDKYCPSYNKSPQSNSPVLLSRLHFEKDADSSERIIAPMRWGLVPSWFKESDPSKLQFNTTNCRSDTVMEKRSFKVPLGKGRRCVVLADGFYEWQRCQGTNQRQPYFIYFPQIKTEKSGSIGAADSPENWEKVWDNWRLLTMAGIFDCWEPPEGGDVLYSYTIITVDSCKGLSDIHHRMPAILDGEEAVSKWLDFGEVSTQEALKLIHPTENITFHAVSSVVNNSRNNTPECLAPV
The data set can be described thus: X-ray crystallography.

B1: P5nt palindromic DNA (dsDNA)
DNA 1: CAACGTTGTTTTT
DNA 2: CAACGTTGTTTTT
B1: the binding result is “binds”.
